Target: FcγRIIIa on human PBMCs expressing heterozygous V158/F158 FcγRIIIa (human) (UniProt P08637)
Assay: cell-based or functional assay

Sequence of FcγRIIIa on human PBMCs expressing heterozygous V158/F158 FcγRIIIa (human) (P08637 17-254): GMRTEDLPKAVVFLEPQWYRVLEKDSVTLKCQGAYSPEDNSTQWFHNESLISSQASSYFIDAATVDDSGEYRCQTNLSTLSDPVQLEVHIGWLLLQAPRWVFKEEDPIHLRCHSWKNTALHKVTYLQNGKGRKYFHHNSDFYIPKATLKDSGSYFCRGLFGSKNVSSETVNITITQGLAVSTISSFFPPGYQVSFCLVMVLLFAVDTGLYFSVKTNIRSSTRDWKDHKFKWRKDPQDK

ADCC EC50 [ng/mL] | ADCC Fold WT [fold] | ADCC log(EC50) | Substance
3 | 3.3 | 0.49 | S239D/I332E alemtuzumab (antibody)
4 |  | 0.6 | V264I/I332E alemtuzumab (antibody)

Source: patent US20070286859A1
